Values belong to the molecule of their own block, whether it stands above or below them.
Columns and labels:
[1] = target: human HER3 expressed on cells (human) (UniProt P21860); assay: flow cytometry, HEK293 cells overexpressing human HER3, 20 ug/ml antibody, FITC anti-Fc secondary; isotype on WT HEK293: 0.07
[2] = target: human HER3 expressed on cells (human) (UniProt P21860); assay: flow cytometry on HEK293T HER3 O/E cells, '10 ug' antibody as printed (10 µg/ml by paragraph 872), FITC anti-Fc secondary
[3] = target: human HER4 expressed on HEK293 cells (human) (UniProt Q15303); assay: flow cytometry on HEK293 HER4 overexpressing cells, 10 µg/ml antibody
[4] = target: human HER3 expressed on cells (human) (UniProt P21860); assay: flow cytometry, HEK293 cells overexpressing human HER3, 20 ug/ml antibody, FITC anti-Fc secondary; same antibody on WT HEK293: 1.91
[5] = target: human HER3 expressed on cells (human) (UniProt P21860); assay: flow cytometry, HEK293 cells overexpressing human HER3, 20 ug/ml antibody, FITC anti-Fc secondary; same antibody on WT HEK293: 8.15
[6] = target: His-tagged FcγRIIIa (V158) (UniProt P08637); assay: Bio-Layer Interferometry, determined as described in Example 7; receptor row FcgRIIIA (V158)
FcRn (human) = FcRn (human) (UniProt P55899); assay: Bio-Layer Interferometry, determined as described in Example 7
FcgRIIIA (F158) (human) = FcgRIIIA (F158) (human) (UniProt P08637); assay: as above
moFcgRIV (mouse) = assay: as above
moFcRn (mouse) = target: T1, moFcRn (mouse) (UniProt Q61559); assay: as above
T1 sequence (receptor, looked up): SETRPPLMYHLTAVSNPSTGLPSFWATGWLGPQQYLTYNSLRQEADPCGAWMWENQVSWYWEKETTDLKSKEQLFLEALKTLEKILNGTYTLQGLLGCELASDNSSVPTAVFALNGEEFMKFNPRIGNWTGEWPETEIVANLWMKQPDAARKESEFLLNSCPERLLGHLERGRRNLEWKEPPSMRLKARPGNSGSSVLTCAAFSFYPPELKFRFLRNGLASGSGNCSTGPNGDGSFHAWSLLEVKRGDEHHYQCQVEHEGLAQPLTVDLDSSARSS
T1 sequence (looked up): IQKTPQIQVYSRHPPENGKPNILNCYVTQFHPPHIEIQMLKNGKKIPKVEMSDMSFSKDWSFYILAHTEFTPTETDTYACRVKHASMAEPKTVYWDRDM

[7] = target: T2, human HER3 polypeptide, recombinant (His-tagged human HER3) (human, UniProt P21860 20-643, biotinylated in the assays of paragraph 766 and paragraph 908); assay: ELISA on human HER3 polypeptide coated at 0.1 ug/ml
T2 construct: Bought protein (Sino Biological for the ELISAs); also called HER3 His; HER3-biotin

[8] = target: human HER3 polypeptide, recombinant (His-tagged human HER3) (human) (UniProt P21860); assay: plate ELISA dimerisation assay: human EGFR-His coated, HER3-biotin 4 µg/ml and NRG 0.1 µg/ml constant, antibody titrated; blocked interaction EGFR:HER3
[9] = target: human HER3 polypeptide, recombinant (His-tagged human HER3) (human) (UniProt P21860); assay: BLI (Octet QK384), His-tagged human HER3 on anti-Penta-HIS tips, saturating antibody LJM-716 (400 nM), then competing antibody MM-121 (300 nM)
FcgRIIA (R167) (human) = assay: Bio-Layer Interferometry, determined as described in Example 7
FcgRIIA (H167) (human) = assay: as above
Chain of FcgRIIA (H167) (human) (P12318 34-217): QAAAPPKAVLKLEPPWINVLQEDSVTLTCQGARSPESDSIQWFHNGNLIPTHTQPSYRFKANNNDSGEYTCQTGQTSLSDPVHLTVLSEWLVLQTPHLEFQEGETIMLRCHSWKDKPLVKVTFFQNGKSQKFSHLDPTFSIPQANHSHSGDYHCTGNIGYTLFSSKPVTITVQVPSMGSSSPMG

FcgRIIB (human) = assay: as above
Chain of FcgRIIB (human) (P31994 43-217): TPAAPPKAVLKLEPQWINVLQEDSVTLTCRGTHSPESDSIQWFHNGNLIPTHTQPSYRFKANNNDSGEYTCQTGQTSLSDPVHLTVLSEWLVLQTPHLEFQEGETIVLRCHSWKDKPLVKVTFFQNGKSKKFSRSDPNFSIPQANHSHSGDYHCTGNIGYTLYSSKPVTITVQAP

rat HER3 polypeptide = target: T3, rat HER3 polypeptide (rat, UniProt Q62799 20-643, limits assumed); assay: ELISA, plate coated with 0.1 ug/ml target polypeptide, antibody serially diluted
T3 construct: also called R. norvegicus HER3 homologue
T3 sequence (Q62799 20-643 limits assumed): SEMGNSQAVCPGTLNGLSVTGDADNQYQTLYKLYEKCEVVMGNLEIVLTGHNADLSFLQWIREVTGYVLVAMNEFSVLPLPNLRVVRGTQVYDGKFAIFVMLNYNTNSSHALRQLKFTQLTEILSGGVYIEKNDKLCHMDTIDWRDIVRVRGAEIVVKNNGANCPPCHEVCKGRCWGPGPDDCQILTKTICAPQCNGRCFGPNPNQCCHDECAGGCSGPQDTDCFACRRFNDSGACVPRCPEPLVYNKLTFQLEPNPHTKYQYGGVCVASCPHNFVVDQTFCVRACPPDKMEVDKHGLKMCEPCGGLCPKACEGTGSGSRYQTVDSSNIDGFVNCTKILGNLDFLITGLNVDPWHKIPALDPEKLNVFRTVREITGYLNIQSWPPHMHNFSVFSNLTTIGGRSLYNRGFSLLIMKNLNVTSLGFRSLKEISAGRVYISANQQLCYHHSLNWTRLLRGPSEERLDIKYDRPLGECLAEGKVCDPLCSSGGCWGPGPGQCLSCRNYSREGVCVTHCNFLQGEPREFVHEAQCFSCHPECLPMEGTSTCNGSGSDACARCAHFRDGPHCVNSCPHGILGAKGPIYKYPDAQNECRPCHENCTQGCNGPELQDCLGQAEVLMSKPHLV
Procedure: (§1) ELISAs were used to determine the binding specificity of the antibodies. […] The antibodies were also analysed for their ability to bind to human EGFR and human HER2 (Sino Biological Inc., China).
(§2) ELISAs were carried out according to standard protocols. Briefly, 96-well plates (Nunc, Denmark) were coated with 0.1 μg/ml of target polypeptide in phosphate-buffered saline (PBS) for 16 h at 4° C. After blocking for 1 h with 1% BSA in Tris buffer saline (TBS) at room temperature, the anti-HER3 antibody was serially diluted with the highest concentration being 10 μg/ml, and added to the plate. Post 1 h incubation at room temperature, plates were washed three times with TBS containing 0.05% Tween 20 (TBS-T) and were then incubated with a HRP-conjugated […] antibody (Life Technologies, Inc., USA) for 1 h at room temperature. After washing, plates were developed with colorimetric detection substrate 3,3′,5,5′-tetramethylbenzidine (Turbo-TMB; Pierce, USA) for 10 min.

[10] = target: T4, human EGFR polypeptide, recombinant (human, UniProt P00533 25-645); assay: as above
T4 construct: also called human HER1 (EGFR); human EGFR-His
Procedure: as §1, §2

mouse HER3 polypeptide = target: T5, mouse HER3 polypeptide (mouse, UniProt Q61526 20-641); assay: as above
T5 construct: also called M. musculus HER3 homologue
T5 sequence (Q61526 20-641 limits assumed): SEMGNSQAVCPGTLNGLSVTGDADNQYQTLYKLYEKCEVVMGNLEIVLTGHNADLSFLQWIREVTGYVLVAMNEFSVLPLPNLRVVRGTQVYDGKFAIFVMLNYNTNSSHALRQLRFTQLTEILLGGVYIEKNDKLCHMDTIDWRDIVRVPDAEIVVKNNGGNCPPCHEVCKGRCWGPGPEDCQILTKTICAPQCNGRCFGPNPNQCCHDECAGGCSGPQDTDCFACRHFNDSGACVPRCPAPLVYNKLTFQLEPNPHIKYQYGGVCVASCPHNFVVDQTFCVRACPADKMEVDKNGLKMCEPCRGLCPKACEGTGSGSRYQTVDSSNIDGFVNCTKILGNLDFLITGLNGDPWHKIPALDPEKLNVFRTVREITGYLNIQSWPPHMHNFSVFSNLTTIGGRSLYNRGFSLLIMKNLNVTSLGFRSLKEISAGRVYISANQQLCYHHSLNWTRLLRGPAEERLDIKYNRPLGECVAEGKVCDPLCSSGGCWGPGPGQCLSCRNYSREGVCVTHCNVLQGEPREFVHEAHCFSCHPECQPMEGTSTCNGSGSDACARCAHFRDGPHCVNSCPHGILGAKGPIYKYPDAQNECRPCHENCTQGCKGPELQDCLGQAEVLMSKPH
Procedure: as §1, §2

[11] = target: human HER2 polypeptide, recombinant (His-tagged HER2 protein) (human, UniProt P04626 23-652); assay: as above
Procedure: as §1, §2

B1: anti-HER3 clone 10D1_c90 IgG1 (antibody, V domains shown)
VH: QVQLQESGPGLVKPSQTLFLTCTVSGYSITSGYSWHWIRQHPGKGLEWIGSIRYSGGTDYNPSLKSLVTISVDTSKNQFSLKLSSVTAADTAVYYCARMTTAPWYPFDYWGQGTTVTVSS
VL: DIQMTQSPSSVSASVGDRVTFTCKASQIVGSNVAWYQQKPGKAPEPLIYSASYLYSSVPSRFSGSGSGTEFTMTISSLEPEDFATYYCQQYTTHPLTFGPGTKVEIKR
notes: Humanised 10D1 variant, human IgG1 / kappa
EC50 (read off the curve) [7]: ~6 ng/mL

B2: anti-HER3 antibody MM-121 (seribantumab) (antibody, INN chains, looked up, human IgG2)
heavy: EVQLLESGGGLVQPGGSLRLSCAASGFTFSHYVMAWVRQAPGKGLEWVSSISSSGGWTLYADSVKGRFTISRDNSKNTLYLQMNSLRAEDTAVYYCTRGLKMATIFDYWGQGTLVTVSSASTKGPSVFPLAPCSRSTSESTAALGCLVKDYFPEPVTVSWNSGALTSGVHTFPAVLQSSGLYSLSSVVTVPSSNFGTQTYTCNVDHKPSNTKVDKTVERKCCVECPPCPAPPVAGPSVFLFPPKPKDTLMISRTPEVTCVVVDVSHEDPEVQFNWYVDGVEVHNAKTKPREEQFNSTFRVVSVLTVVHQDWLNGKEYKCKVSNKGLPAPIEKTISKTKGQPREPQVYTLPPSREEMTKNQVSLTCLVKGFYPSDIAVEWESNGQPENNYKTTPPMLDSDGSFFLYSKLTVDKSRWQQGNVFSCSVMHEALHNHYTQKSLSLSPG
light: QSALTQPASVSGSPGQSITISCTGTSSDVGSYNVVSWYQQHPGKAPKLIIYEVSQRPSGVSNRFSGSKSGNTASLTISGLQTEDEADYYCCSYAGSSIFVIFGGGTKVTVLGQPKAAPSVTLFPPSSEELQANKATLVCLVSDFYPGAVTVAWKADGSPVKVGVETTKPSKQSNNKYAASSYLSLTPEQWKSHRSYSCRVTHEGSTVEKTVAPAECS
IC50 [8]: 54.2 nM
% Positive for HER4 [3]: 8.73%
Kd [6]: 7.05 µM
cell of the competition table (name and unit of the value not given) [9]: 0.693
Kd (FcRn (human)): 11.5 nM
Kd (FcgRIIA (R167) (human)): 243 nM
Kd (FcgRIIA (H167) (human)): 222 nM
Kd (moFcRn (mouse)): 6.69 nM
Kd (FcgRIIB (human)): 1440 nM

B3: anti-HER3 clone 4-35-B4 IgG1 (antibody, V domains shown)
VH: EVQLQQSGAELVKPGASVKLSCTASGFNIKDTYIHWVKQRPDQGLEWIGKIIDPANGNTNYDPKFQGKATITADTSSNTAYLQLSSLSSEDTAVYFCARGLHWGQGTTLTVSS
VL: DIVLTQSPASLAVSLGQRATISCRASKSVSTSGYSYMHWYQQKPGQPPKLLIYLASNLESGVPARFSGSGSGTDFTLNIHPVEEEDAATYYCQHSRELPYTFGGGTKLEIKR
notes: Human IgG1 / kappa chimeric
binding result (rat HER3 polypeptide): binds
binding result [10]: binds
binding result (mouse HER3 polypeptide): binds
binding result [11]: binds

The remaining lines, values ahead:

% Parent (HER3 positive) [1]: 0.12%
Molecule: Isotype (antibody)

% Parent (HER3 positive gate) [2]: 0.18%
% Positive for HER4 [3]: 0.07%
Molecule: hIgG1 Isotype (antibody)

% Parent (HER3 positive) [4]: 99.5%
% Parent (HE3 Positive) [5]: 98.7%
% Parent (HER3 positive gate) [2]: 74.4%
% Positive for HER4 [3]: 0.27%
Kd [6]: 0.705 µM
Kd (FcRn (human)): 16.5 nM
Kd (FcgRIIIA (F158) (human)): 5.38 µM
Kd (moFcgRIV (mouse)): 701 nM
Kd (moFcRn (mouse)): 12.8 nM
Molecule: anti-HER3 antibody clone LJM716

Reference: patent publication US20240092937A1 (HUMMINGBIRD BIOSCIENCE HOLDINGS PTE, published 2024)
